Experimental data reported in the supplement of paper PMC7877785.
± gives the uncertainty stated by the source.

Experiment: self-splicing fitness, log relative to wild type (ln ratio); higher = more splicing; Tetrahymena group I intron in knt gene, E. coli kanamycin selection, DiMSum; sequences stand for … in CUCUCU…GGAGGGAAAAGUUAUCAGGCAUGCACCUGGUAGCUAGUCUUUAAACCAAUAGAUUGCAUCGGUUUAAAAGGCAAGACCGUCAAAUUGCGGGAAAGGGGUCAACAGCCGUUCAGUACCAAGUCUCAGGGGAAACUUUGAGAUGGCCUUGCAAAGGGUAUGGUAAUAAGCUGACGGACAUGGUCCUAACCACGCAGCCAAGUCCUAAGUCAACAGAUCUUCUGUUGAUAUGGAUGCAGUUCACAGACUAAAUGUCGGUCGGGGAAGAUGUAUUCUUCUCAUAAGAUAUAGUCGGACCUCUCCUUAAUGGGAGCUAGCGGAUGAAGUGAUGCAACACUGGAGCCGCUGGGAACUAAUUUGUAUGCGAAAGUAUAUUGAUUAGUUUUGGAGUACUCGUGGUCG
Method in brief: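 The eight P1ex-region nucleotides of an intron in the knt kanamycin-resistance gene on pET-22b(+) were all randomised and the library put into E. coli BL21(DE3). Six replicate transformations were grown overnight at 37°C or 30°C on LB agar with or without 25 μg/mL kanamycin, together with 100 μg/mL carbenicillin, 50 μM IPTG and 0.2% rhamnose. Colonies were pooled and amplicon-sequenced on an Illumina HiSeq 2500. Fitness from DiMSum is the error-weighted combination of wild-type-normalised replicate fold changes, kanamycin over none.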

Sequence | self-splicing fitness (ln) (30 °C) | self-splicing fitness (ln) (37 °C)
AUUGAGCAAUAUUACGCGGG | -3.34 ± 0.36 | -2.25 ± 0.35
AUUGAGCAAUAUUACGCGUU | -3.02 ± 0.26 | -2.34 ± 0.23
AUUGAGCAAUAUUACGGCAA | -1.58 ± 0.14 | -0.831 ± 0.13
AUUGAGCAAUAUUACGGCAU | -1.17 ± 0.088 | -0.323 ± 0.13
AUUGAGCAAUAUUACGGCUC |  | -1.77 ± 0.32
AUUGAGCAAUAUUACGGGCC | -2.96 ± 0.36 | -2.05 ± 0.43
AUUGAGCAAUAUUACGGGUA |  | -2.06 ± 0.32
AUUGAGCAAUAUUACGGGUC | -3.34 ± 0.39 | 
AUUGAGCAAUAUUACGGGUU | -3.92 ± 0.25 | -3.31 ± 0.21
AUUGAGCAAUAUUACGGUAA | -3.25 ± 0.22 | -2.53 ± 0.2
AUUGAGCAAUAUUACGGUGA | -2.89 ± 0.28 | -1.48 ± 0.22
AUUGAGCAAUAUUACGUAGA | -2.86 ± 0.26 | -2.38 ± 0.42
AUUGAGCAAUAUUACGUAGG | -3.16 ± 0.37 | 0.0777 ± 0.29
AUUGAGCAAUAUUACGUCAU | -2.76 ± 0.14 | -2.12 ± 0.17
AUUGAGCAAUAUUACGUCGG | -4.24 ± 0.46 | -1.68 ± 0.39
AUUGAGCAAUAUUACGUUUU | -3.05 ± 0.17 | -1.38 ± 0.22
AUUUAGCAAUAUUACGAACA | -0.709 ± 0.15 | -0.537 ± 0.17
AUUUAGCAAUAUUACGAAUG | -2.39 ± 0.19 | -0.72 ± 0.21
AUUUAGCAAUAUUACGAGGG |  | -1.34 ± 0.28
AUUUAGCAAUAUUACGAUUA | -1.4 ± 0.2 | -0.561 ± 0.16
AUUUAGCAAUAUUACGCAAU | -2.53 ± 0.2 | -1.86 ± 0.18
AUUUAGCAAUAUUACGCAGU | -3 ± 0.28 | -2.18 ± 0.26
AUUUAGCAAUAUUACGCAUG | -1.05 ± 0.12 | -0.777 ± 0.18
AUUUAGCAAUAUUACGCCAU | -0.966 ± 0.27 | 0.446 ± 0.24
AUUUAGCAAUAUUACGCCCA | -1.06 ± 0.26 | -1.58 ± 0.27

Sequence | self-splicing fitness (ln) (30 °C) | self-splicing fitness (ln) (37 °C)
AUUUAGCAAUAUUACGCGGG | -2.72 ± 0.19 | -1.96 ± 0.16
AUUUAGCAAUAUUACGCGGU | -2.13 ± 0.29 | -1.87 ± 0.44
AUUUAGCAAUAUUACGGAGU | -2.92 ± 0.27 | -2.29 ± 0.27
AUUUAGCAAUAUUACGGGAU | -1.42 ± 0.11 | -0.217 ± 0.14
AUUUAGCAAUAUUACGGGCG | -1.77 ± 0.12 | -0.764 ± 0.12
AUUUAGCAAUAUUACGUACU | -0.21 ± 0.11 | -0.13 ± 0.15
AUUUAGCAAUAUUACGUAGC | -3 ± 0.23 | -1.64 ± 0.25
AUUUAGCAAUAUUACGUAUC |  | -2.15 ± 0.32
AUUUAGCAAUAUUACGUUUU | -3.37 ± 0.24 | -2.25 ± 0.2
CAAAAGCAAUAUUACGACGU | -0.652 ± 0.066 | 0.0132 ± 0.08
CAAAAGCAAUAUUACGAGCU | -3.99 ± 0.21 | -1.96 ± 0.13
CAAAAGCAAUAUUACGAGGG | -2.77 ± 0.14 | -2.53 ± 0.21
CAAAAGCAAUAUUACGAGUC | -4.06 ± 0.24 | -2.65 ± 0.25
CAAAAGCAAUAUUACGAUGC | -3.49 ± 0.19 | -2.99 ± 0.32
CAAAAGCAAUAUUACGCCGU | -2.08 ± 0.16 | -1.32 ± 0.18
CAAAAGCAAUAUUACGCUGU | -3.49 ± 0.25 | -1.73 ± 0.18
CAAAAGCAAUAUUACGGAGA | -2.88 ± 0.28 | -3.43 ± 0.3
CAAAAGCAAUAUUACGGCGA | -1.16 ± 0.11 | -0.502 ± 0.098
CAAAAGCAAUAUUACGGUUA | -1.72 ± 0.1 | -0.514 ± 0.083
CAAAAGCAAUAUUACGGUUG | -1.66 ± 0.11 | -1.17 ± 0.14
CAAAAGCAAUAUUACGUAGU | -3.12 ± 0.12 | -2.76 ± 0.18
CAAAAGCAAUAUUACGUAUA | -3 ± 0.15 | -2.38 ± 0.17
CAAAAGCAAUAUUACGUCGA | -2.16 ± 0.086 | -1.06 ± 0.084
CAAAAGCAAUAUUACGUGCC | -2.99 ± 0.24 | -1.41 ± 0.23
CAACAGCAAUAUUACGAAGC | -3.45 ± 0.13 | -2.74 ± 0.15

Sequence | self-splicing fitness (ln) (30 °C) | self-splicing fitness (ln) (37 °C)
CAACAGCAAUAUUACGAAUA | -3.74 ± 0.28 | -1.83 ± 0.2
CAACAGCAAUAUUACGACAA | -3.37 ± 0.21 | -2.29 ± 0.14
CAACAGCAAUAUUACGACCC | -1.31 ± 0.13 | -2.62 ± 0.33
CAACAGCAAUAUUACGAGUA | -1.85 ± 0.1 | -1.04 ± 0.082
CAACAGCAAUAUUACGCAAC | -3.4 ± 0.23 | -2.53 ± 0.33
CAACAGCAAUAUUACGCACG | -0.598 ± 0.067 | 0.246 ± 0.094
CAACAGCAAUAUUACGCAUC | -3.3 ± 0.16 | -2.29 ± 0.14
CAACAGCAAUAUUACGCCAC | -3.26 ± 0.37 | -2.39 ± 0.31
CAACAGCAAUAUUACGCCUA | -2.08 ± 0.12 | -1.31 ± 0.11
CAACAGCAAUAUUACGCGUC | -3.55 ± 0.22 | -1.98 ± 0.13
CAACAGCAAUAUUACGCUGC | -3.4 ± 0.23 | -2.21 ± 0.36
CAACAGCAAUAUUACGCUUA | -2.13 ± 0.12 | -0.653 ± 0.09
CAACAGCAAUAUUACGGAAC | -4.2 ± 0.28 | -3.48 ± 0.23
CAACAGCAAUAUUACGGCCG | 0.255 ± 0.072 | 0.563 ± 0.1
CAACAGCAAUAUUACGGGAA | -2.48 ± 0.16 | -2.04 ± 0.14
CAACAGCAAUAUUACGGGGC | -3.71 ± 0.16 | -3.4 ± 0.17
CAACAGCAAUAUUACGUACU | -1.89 ± 0.076 | -0.917 ± 0.097
CAACAGCAAUAUUACGUAUG | -2.88 ± 0.12 | -1.35 ± 0.1
CAACAGCAAUAUUACGUCCU | -2.08 ± 0.071 | -1.6 ± 0.094
CAAGAGCAAUAUUACGAAGG | -2.06 ± 0.17 | -0.821 ± 0.19
CAAGAGCAAUAUUACGACGG | -0.504 ± 0.087 | 0.00208 ± 0.14
CAAGAGCAAUAUUACGAGAG | -3.74 ± 0.16 | -1.83 ± 0.13
CAAGAGCAAUAUUACGAUAA | -3.21 ± 0.22 | -1.79 ± 0.18
CAAGAGCAAUAUUACGCCAC | -2.38 ± 0.36 | 
CAAGAGCAAUAUUACGCGAA | -3.05 ± 0.26 | -2.98 ± 0.4

Sequence | self-splicing fitness (ln) (30 °C) | self-splicing fitness (ln) (37 °C)
CAAGAGCAAUAUUACGGAUA | -2.87 ± 0.23 | -2.32 ± 0.29
CAAGAGCAAUAUUACGGCAU | -3.14 ± 0.23 | -2.02 ± 0.21
CAAGAGCAAUAUUACGGCCA | -2.08 ± 0.38 | -2.62 ± 0.48
CAAGAGCAAUAUUACGGCGG | -0.86 ± 0.069 | -0.283 ± 0.094
CAAGAGCAAUAUUACGGCUA | -3.05 ± 0.31 | -1.97 ± 0.22
CAAGAGCAAUAUUACGGUGA | -3.01 ± 0.2 | -1.88 ± 0.21
CAAGAGCAAUAUUACGUAAG | -0.178 ± 0.084 | -0.217 ± 0.12
CAAGAGCAAUAUUACGUAUC | -3.78 ± 0.17 | -2.67 ± 0.2
CAAGAGCAAUAUUACGUCAU | -4.3 ± 0.24 | -3.57 ± 0.17
CAAGAGCAAUAUUACGUGGG | -3.54 ± 0.21 | -2.64 ± 0.19
CAAGAGCAAUAUUACGUGUG | -2.56 ± 0.1 | -1.5 ± 0.092
CAAGAGCAAUAUUACGUUAU | -4.08 ± 0.19 | -2.78 ± 0.17
CAAGAGCAAUAUUACGUUCG | -1.27 ± 0.089 | -0.199 ± 0.11
CAAUAGCAAUAUUACGCACA | -2.3 ± 0.12 | -1.4 ± 0.12
CAAUAGCAAUAUUACGCAUA | -2.99 ± 0.18 | -2.08 ± 0.18
CAAUAGCAAUAUUACGCAUG | -1.35 ± 0.091 | -0.845 ± 0.11
CAAUAGCAAUAUUACGCGAU | -3.99 ± 0.23 | -2.92 ± 0.29
CAAUAGCAAUAUUACGCUAG | -2.49 ± 0.15 | -1.86 ± 0.19
CAAUAGCAAUAUUACGGAAA | -3.49 ± 0.19 | -2.83 ± 0.32
CAAUAGCAAUAUUACGGCUC | -1.08 ± 0.15 | -0.901 ± 0.23
CAAUAGCAAUAUUACGGGCU | -3.42 ± 0.16 | -1.4 ± 0.12
CAAUAGCAAUAUUACGGGUC | -3.28 ± 0.34 | -2.4 ± 0.48
